Several values for one entry are separate records, joined by “and”; a condition that tells them apart may be missing. Equal entries are not always repeated.
Tests used:
[1] = target: histone H3 peptide 1-21, unmodified, biotinylated, P68431; experiment: SPR; biotinylated histone H3 peptides immobilised on streptavidin sensor, CHD4 constructs injected at 100 μl/min; 25 °C; 20 mM Tris pH 7.5, 200 mM NaCl, 0.05% polysorbate 20; Kd from the steady-state response, sensorgrams when appropriate globally fitted; three repeats
[2] = target: T1, histone H3 peptide 1-21 trimethylated on K9, biotinylated, P68431; experiment: as above
[3] = target: T2, histone H3 peptide 1-21 dimethylated on K9, biotinylated, P68431; experiment: as above
[4] = target: T3, histone H3 peptide 1-21 monomethylated on K9, biotinylated, P68431; experiment: as above
[5] = target: T4, nucleosome core particle reconstituted from recombinant X. laevis histones and a 168 bp fragment of 601-DNA (X. laevis); experiment: native gel or EMSA; 50 fmol radiolabeled mononucleosomes with increasing amounts of CHD4 constructs, 15 min on ice, 20 Tris-HCl pH 8, 200 mM NaCl, 10% sucrose; 5% native polyacrylamide gel, autoradiography
[6] = target: T4, nucleosome core particle reconstituted …
[7] = target: histone H3 peptide 1-21, unmodified, biotinylated, P68431; experiment: SPR; as a1 but tPHDtCHD/ATPase injected with added ATP
[8] = target: T1, histone H3 peptide 1-21 trimethylated …; experiment: as above
[9] = target: T2, histone H3 peptide 1-21 dimethylated on …; experiment: as above
[10] = target: T3, histone H3 peptide 1-21 monomethylated …; experiment: as above

Row | Kd [1] | koff [1] | kon [1] | Kd [2] | kon [2] | Kd [3] | koff [3] | Kd [4] | concentration necessary for binding [5] | koff [2] | kon [3] | Binder | other results
1 | 14 µM and 19 µM | 0.68 s⁻¹ | 50000 M⁻¹ s⁻¹ | 21 µM and 10 µM | 33000 M⁻¹ s⁻¹ | 8.6 µM | 0.31 s⁻¹ | 24 µM | 0.5 µM |  |  | CHD4 tPHDtCHD construct (tandem PHD and tandem chromodomains) (domain or fragment, modifications not checked) YETDHQDYCEVCQQGGEIILCDTCPRAYHMVCLDPDMEKAPEGKWSCPHCEKEGIQWEAKEDNSEGEEILEEVGGDLEEEDDHHMEFCRVCKDGGELLCCDTCPSSYHIHCLNPPLPEIPNGEWLCPRCTCPALKGKVQKILIWKWGQPPSPTPVPRPPDADPNTPSPKPLEGRPERQFFVKWQGMSYWHCSWVSELQLELHCQVMFRNYQRKNDMDEPPSGDFGGDEEKSRKRKNKDPKFAEMEERFYRYGIKPEWMMIHRILNHSVDKKGHVHYLIKWRDLPYDQASWESEDVEIQDYDLFKQSYWNHRELMRGEEGRPGKKLKKVKLRKL | 
2 | 4.1 µM | 0.0135 s⁻¹ | 3300 M⁻¹ s⁻¹ | 2.6 µM | 1000 M⁻¹ s⁻¹ | 4.7 µM | 0.0056 s⁻¹ | 2.9 µM | 0.06 µM | 0.025 s⁻¹ | 1200 M⁻¹ s⁻¹ | CHD4 tPHDtCHD/ATPase construct (minimal construct containing all three domains) (domain or fragment, modifications not checked) YETDHQDYCEVCQQGGEIILCDTCPRAYHMVCLDPDMEKAPEGKWSCPHCEKEGIQWEAKEDNSEGEEILEEVGGDLEEEDDHHMEFCRVCKDGGELLCCDTCPSSYHIHCLNPPLPEIPNGEWLCPRCTCPALKGKVQKILIWKWGQPPSPTPVPRPPDADPNTPSPKPLEGRPERQFFVKWQGMSYWHCSWVSELQLELHCQVMFRNYQRKNDMDEPPSGDFGGDEEKSRKRKNKDPKFAEMEERFYRYGIKPEWMMIHRILNHSVDKKGHVHYLIKWRDLPYDQASWESEDVEIQDYDLFKQSYWNHRELMRGEEGRPGKKLKKVKLRKLERPPETPTVDPTVKYERQPEYLDATGGTLHPYQMEGLNWLRFSWAQGTDTILADEMGLGKTVQTAVFLYSLYKEGHSKGPFLVSAPLSTIINWEREFEMWAPDMYVVTYVGDKDSRAIIRENEFSFEDNAIRGGKKASRMKKEASVKFHVLLTSYELITIDMAILGSIDWACLIVDEAHRLKNNQSKFFRVLNGYSLQHKLLLTGTPLQNNLEELFHLLNFLTPERFHNLEGFLEEFADIAKEDQIKKLHDMLGPHMLRRLKADVFKNMPSKTELIVRVELSPMQKKYYKYILTRNFEALNARGGGNQVSLLNVVMDLKKCCNHPYLFPVAAMEAPKMPNGMYDGSALIRASGKLLLLQKMLKNLKEGGHRVLIFSQMTKMLDLLEDFLEHEGYKYERIDGGITGNMRQEAIDRFNAPGAQQFCFLLSTRAGGLGINLATADTVIIYDSDWNPHNDIQAFSRAHRIGQNKKVMIYRFVTRASVEERITQVAKKKMMLTHLVVRPGL | koff [4]: 0.026 s⁻¹; kon [4]: 900 M⁻¹ s⁻¹; ATPase activity (kcat, phosphate release assay) with 0.32 pmol of mono-nucleosome particles; about 6-fold stimulation [6]: 0.0615 s⁻¹; Kd [7]: 1.4 µM; koff [7]: 0.0265 s⁻¹; kon [7]: 18900 M⁻¹ s⁻¹; Kd [8]: 0.5 µM; koff [8]: 0.018 s⁻¹; kon [8]: 36000 M⁻¹ s⁻¹; Kd [9]: 1.7 µM; koff [9]: 0.0073 s⁻¹; kon [9]: 4300 M⁻¹ s⁻¹; Kd [10]: 6.9 µM
3 | 190 µM and 188 µM | 0.49 s⁻¹ | 2600 M⁻¹ s⁻¹ | 70 µM and 48 µM | 3500 M⁻¹ s⁻¹ | 63 µM and 51 µM | 0.2 s⁻¹ | 42 µM | 10 to 20 µM | 0.17 s⁻¹ | 3900 M⁻¹ s⁻¹ | CHD4 tandem plant homeodomain zinc fingers (tPHD) construct (domain or fragment, modifications not checked) YETDHQDYCEVCQQGGEIILCDTCPRAYHMVCLDPDMEKAPEGKWSCPHCEKEGIQWEAKEDNSEGEEILEEVGGDLEEEDDHHMEFCRVCKDGGELLCCDTCPSSYHIHCLNPPLPEIPNGEWLCPRCTCPALKGK | 

From publication PMC3476528
